Measurements as given in paper PMC7615827.

Molecular target: ABD-AS25 (albumin binding domain fused to monobody AS25; ABD-…-AS25-Cys)
Assay: ITC

Row | Substance | Kd | stoichiometry N
1 | Bcr-Abl SH2 domain (from UniProt P00519 127-217) (domain or fragment) | 42.4 nM | 1
2 | Human Serum Albumin (from UniProt P02768 25-609) (natural protein) | 5.11 nM | 
